Data on three substances can be found in US20230265171A1.

Like-named read-outs stand apart in the source and are kept apart here.

In assay [1] the target is SARS-CoV-2 spike glycoprotein S1 region (SARS-CoV-2) (UniProt P0DTC2). The assay can be described thus: ELISA, coated antigen. (In general: An ELISA detects its analyte on a solid surface through an enzyme-linked reagent.)
In assay [2] the target is SARS-CoV-2 spike receptor binding domain (RBD) (SARS-CoV-2) (UniProt P0DTC2). The assay can be described thus: ELISA, coated antigen.
Assay [3] has as its target SARS-CoV-2 spike glycoprotein S1 region (SARS-CoV-2) (UniProt P0DTC2). In words: ELISA, coated antigen. This is another data set of the same source.
In assay [4] the target is SARS-CoV-2 spike receptor binding domain (RBD) (SARS-CoV-2) (UniProt P0DTC2). The assay can be described thus: ELISA, coated antigen. The source holds these as a separate data set.
For assay [5], the target named is Dengue serotype 1 envelope antigens on pseudotype virus (Dengue virus serotype 1). In words: cell-based or functional assay.
A further assay deals with HCoV-229E S1 (HCoV-229E) (UniProt P15423). The assay can be described thus: ELISA, antigen coated at 2 µg/mL.
The target of the next assay is HCoV-NL63 S1 (HCoV-NL63) (UniProt Q6Q1S2). In words: ELISA, antigen coated at 2 µg/mL.
In the next assay the target is MERS CoV S1 (MERS CoV) (UniProt K9N5Q8). The assay can be described thus: ELISA, antigen coated at 2 µg/mL.
The next assay has as its target SARS CoV RBD (SARS-CoV) (UniProt P59594). In words: ELISA, antigen coated at 2 µg/mL.
Assay [6] deals with SARS-CoV-2 spike on GFP reporter pseudotype virus (SARS-CoV-2) (UniProt P0DTC2). In words: cell-based or functional assay.
The target in assay [7] is SARS-CoV-2 spike receptor binding domain (RBD) (SARS-CoV-2) (UniProt P0DTC2). The assay can be described thus: RBD:ACE2-His blocking ELISA, competitor ACE2-His.

As for IVIG (Gamunex), the EC50 (in general, the concentration needed to bring the measured effect to its halfway point) turned out to be 1410 µg/mL in assay [1]; 1270 µg/mL in assay [2]; 1380 µg/mL in assay [3]; 1250 µg/mL in assay [4]; 96 µg/mL with HCoV-229E S1 (HCoV-229E); 140 µg/mL with HCoV-NL63 S1 (HCoV-NL63). In addition, the figures for the EC50 with MERS CoV S1 (MERS CoV) and with SARS CoV RBD (SARS-CoV) were 1330 µg/mL and 1280 µg/mL, respectively. Moreover, the peak OD signal in assay [1] is 1.99 OD; in [2], 2.26 OD. This substance had a Neutralization IC50 in [5] of 12.2 µg/mL.

On to SARS CoV mAb [CR3022] (antibody), for which the EC50 in assay [3] is 0.078 µg/mL; in [4] it was 0.088 µg/mL. In assay [6], this substance gave a CoV-2 pseudotype neutralization IC50 of 100 µg/mL.

In the case of SARS CoV-2 mAb [SAD-S35] (antibody), the figures for the EC50 in [3] and in assay [4] were 0.058 µg/mL and 0.057 µg/mL, respectively. This substance gave a CoV-2 pseudotype neutralization IC50 in assay [6] of 0.26 µg/mL. The IC50 (usually the concentration needed to halve the response being measured) in assay [7] amounted to 1.1 µg/mL.
